Results from the DeepSol protein solubility set.

Test: soluble on expression in E. coli; label from the status in PepcDB or PDB records

| Sequence | soluble on expression in E. coli |
| --- | --- |
| MGSDKIHHHHHHMALRLRKENDLWVQTFKAAGQSHLHRVEEEVFLGKCDQEPDLNLELYKDNKAVTDLITQALGSEVEKLSLQFETDVQRTYHVFEADDTAIEVCLDDGAVKTATAQSKICEVEFELKQGAVKTLIQFAQQWINRYELWLDVRSKAERGNLLALGQAASPAVHAKNLNLDKNISAEQALKKIVENCLGQFLPNMAAIADGVAEAEHIHQARVSLRRLRSALKHFSAWSDELNPVWEEQIAELFRQLGDTRDEDAIRTEILPMIVQHGSPELLLPISEQPLKDLATLFKSADTIKLILALLAFAYSEEDNQNGKGKLKKQIGKSLDKLHHQVVSNADHFTELEVTEQHRTRKKAKQLRYCIEFISSLYPRKNIQQFLKQLQPVQNTLGLYNDLFIAEDLFNKAIEHDPHFWFALGWVKAKQPYLQNQSAEALQKFKQAKTFW | not soluble |
| MGSDKIHHHHHHMALSERLSRFLARKGITYQPLETEPVANLDAAVLASGKPQHDFIKATLLIDINGVVMVVHRFDSTLDMDAVHQFTGRRLQPLTARQTSRLFGDCDAGFVPPIGAAWELPVLVDEDVVTAESVIFSGGTDHSLVEMDGRAFRLAQAGARQGHLVIRGQGGEDREALTLEDVADKLQKLYRLPPMPALALRILRLTANTEATAKELAELIEFDPSMTAQIMRYARSALFNYPGQINSVQEAVTRVLGFDRVAHIALGIASVRAFDVPRGGMLGMDNFWRHSLYCAFLCQNLAAYSGRDKGLAYLCGLLHNFGLLLVGHLFPSEFEELNALREINPEASMHSLEQEVFGHSERQDILAVGHGAIGGILHRLWQLPEAVIKAAGMHQHIGYHGEHEEYVQMVQLANAILKERGIGDELNPDDLPALVESLGLRADVLERVQSDMDQVASDLDVLASSLAS | not soluble |
| MGSDKIHHHHHHMAQHVIEMREITKKFDDFVANDHINLDLRKGEIHALLGENGAGKSTLMNMLAGLLEPTSGSIKINGSAVTIDSPSKSAQLGIGMVHQHFMLVEAFTVTENIILGNEVVKNGILDLKKAGQEIKALSEKYGLAVDPNAKIADISVGAQQRVEILKTLYRGADILIFDEPTAVLTPSEIQELMTIMKSLVKEGKSIILITHKLDEIRSVADRVTVIRRGKSIETVEVSGTTSQDLAEMMVGRSVSFTIEKTPTKPKETILSIKDLVVNENRGIPAIKGLSLEVKAGEIIGIAGIDGNGQSELVQAITGLRKIKSGHLTIKGQDVTKLSTRKITELSVGHVPEDRHRDGLILELTMAENLALQTYYKAPLSHNGVLNYSKINEHGRHLMQEFDVRGANELIPAKGFSGGNQQKAIIAREVDRDPDLLIVSQPTRGLDVGAIEYIHKRLIAERDEGKAVLLVSFELDEILNLSDRIAVIHDGQIQGIVTPETTNKQELGILMAGGSIEREEINV | not soluble |
| MGSDKIHHHHHHMAQPGKILKEQKYDRQLRLWGDHGQEALESAHVCLINATATGTEILKNLVLPGIGSFTIIDGNLVSGEDAGNNFFLQKSSIGKNRAQAAMEFLQELNSDVSGSFVEESPENLLDNDPSFFCRFTIVVATQLLESTLLRLADVLWNSQIPLLICRTYGLVGYMRIIIKEHPVIESHPDNALEDLRLDKPFPELREHLQSYDLDHMEKKDHSHTPWIVIIAKYLAQWYNETNGRIPKSYKEKEDFRDLIRQGILKNENGAPEDEENFEEAIKNVNTALNTTQIPSSIEDIFNDDRCINITKQTPTFWILARALKEFVAKEGQGNLPVRGTIPDMIADSNKYIKLQNVYREKAKKDAAAVGNHVAKLLQSVGQAPESISEKELKLLCSNSAFLRVVRCRSLAEEYGLDTVNKDEIISSMDNPDNEIVLYLMLRAVDRFHKQHGRYPGVSNYQVEEDIGKLKSCLTGFLQEYGLSVMVKDDYVHEFCRYGAAEPHTIAAFLGGAAAQEVIKIITKQFVIFNNTYIYSGMSQTSATFQL | not soluble |
| MGSDKIHHHHHHMARHGKGPKTNKKKLAPEKERFIQCCADITLELTDSLTSGTTREINLNGLITKYSKKYKLKQQPRLTDIINSIPDQYKKYLLPKLKAKPVRTASGIAVVAVMCKPHRCPHIAYTGNICVYCPGGPDSDFEYSTQSYTGYEPTSMRAIRARYDPYEQARGRVEQLKQLGHSIDKVEYVLMGGTFMSLPKEYREDFIVKLHNALSGFNGNDIDEAILYSQQSLTKCVGITIETRPDYCTQTHLDDMLKYGCTRLEIGVQSLYEDVARDTNRGHTVRSVCETFAVSKDAGYKVVSHMMPDLPNVGMERDIEQFKEYFENPDFRTDGLKIYPTLVIRGTGLYELWKTGRYKSYSANALVDLVARILALVPPWTRIYRVQRDIPMPLVTSGVDNGNLRELALARMKDLGTTCRDVRTREVGIQEVHHKVQPDQVELIRRDYYANGGWETFLSYEDPKKDILIGLLRLRKASKKYTYRKEFTSQRTSIVRELHVYGSVVPLHSRDPRKFQHQGFGTLLMEEAERIAKEEHGSEKISVISGVGVRNYYGKLGYELDGPYMSKRI | not soluble |
| MGSDKIHHHHHHMARLLSELQPSEFDITVVAIADTPPDVVSMLPDHVEVKHLKMTRRTALLQLGEISKIVKSTDILVCSLFHATAIGVPLGLLLQVPKLLVWQHSTSYSNQIRSAYYRLAYRAADRVLADSDAVMEMLVDSVGVPDQKISTLPIAGIDVKEYQPSKTHPSHENITVSTVGRLANVKGYDDLIRCARDIGDDLQFQIAGEGEERERLESKTPDNVNFQGMVPNEQIPQFLNNSDIYFQPSKYEGLCMAVIEAMACGLPVVASDVGGITESVVPGETGFLCRPRDIDCFSERLQQLSENPALRKQMGTAGRKRVISEYSQKALARQFRKAIDQTETV | not soluble |
| MGSDKIHHHHHHMARRYVVVGGGPAGVVCAETLRRQDAEGSITLVCAEPGPPYSRMAIPYAMSGKIDESGTWLRKDWGHYEALGIALLHDRVTGVDSGARQVRLESGAPLSYDALLIATGSSPARPRVPGLDLPGVHSCWTLEDLRRIDPLLKPGRRVLLLGAGFVSCIILQSLVQRGAKVTVSCGSSGRMVRSMMDETAGGMIMRWCRAKGVEVLTAGRPTAIEQRDSGLLVTLDSGKSAEADLVIVGTGVKTNTAFLEGSGIAIEDGIIVDQYLGTNVPGIWAAGDVAQGFNCCTGLTEVHAIQPTAVEHGRVAAMNMSGHPTPFGGSLSMNTLETLGLISCSFGQWMGAEGGKQVRMVDEEHFRYLRLEFQGDRLVGANTVGMTNEIGIIRGLIQTKLRLGEWLERLTQDPSRLAEAYVACAQGV | not soluble |
| MGSDKIHHHHHHMASESNQVIQRLFQRFFRDELAGLSPADRAAFESEFEGRYGELLDRSSSATTTSFADLVGFGDGPIKPFDSLQMPLLRNDFDESIIPPQLQASAELYYIYQMDRMKLFQVVDVLRRLFQNGQIRIQRGPGARGLYILEKWRPIRYKRRDRLIAYRRVFNYGRAPVPAGAIVNRSFHFQLVAFMNAMSQYFQDLTIGQVIRGSSTINDRPFAALATVQRVGTDLRYHLDRSSYGNILALTRETGQYVQQIFELFDAPDIKKSFDANTKWDVIEAVANRHLGGATEMSERAKMADAGRRILQYIAENDFRTTITPAEFDADAKKMGAQADAWLAAYRLTREGRRFPGLDGDRVHWSYGLNRNTASRIAA | not soluble |
| MGSDKIHHHHHHMASFIASDQDVKNFLTAPSMNDQEGIGFAYATDEAVLKALIPAPLKLMAPVVCGYVVHMGKPTFSAPYLEESLFALVSYKDKMMGAYPINLLLHGPGAESGVIAGREGAGIPKKLADDIELRRNDNSATATVERHGKTLLNVSWTAGELNDPSIMKQFAGQLALGKEAEMNSFFYKYDIDQHEDGTNHFSNVQLVATQLRSLADQVEPGNLSIQLESTDDDPFGELKVLKPLGAAWFHFDTSVMFNTLKLDEVDAATTMPKLLTGRYDRSFFNPKAATYII | not soluble |
| MGSDKIHHHHHHMASLTANIQTQEERKRSLPAQLVVSLVIAMSLWSKDSMRDVLKNLIDGLSEAWLKVGKYWRVACKSAITQARQRLGARVMCKLFHQLVKPMATQETLGAFLQELRIVVIDGSCFDVPDSDENARVFGRPGSRPGTKAAFPKVRLVILVEAGTHIIFDALMWPYRIGERVRALRLLRSVTPGMLLMWDRGLHSYAMVQATVTKGCDYLGRIPANIKFIAEKPLEDGSYLSWIYPSGKLRKKASQPILVRIIEYTIEHPDNPTEQLTYRLITSLLNIEKFPAELLAREYHQRWEVENTIDELKIHLLGRKTHVRSQKPREVVQEVYAWLLGHWTVRLLMFQAATSAGVAPLRLSFTGTLRVIRRAVPKFQRLNSQDLPLFLSG | not soluble |
| MGSDKIHHHHHHMATELPSLKGLQAFEAAARYRSVTLASNELNVTPGAVSLQIRELEARLGVQLFFRKPRSIQLTREGERYYGALRTAFRMMREATAELTARSEITVLTLSCTPTFAVQWLMPRLPSFQQQHPHVDVRISVTNRLVDFSRDDVDLAVRHGFGRYEGLESIRFIDDSTLPVCAPQLLEKYGPLREAGDLKSVPLLHDENRNEWRRWLEAAGASEVDASGGTVFIDSNGALDAAKAGHGIALTRRSLVSRELVEGALIAPFGTDMASTLAYFLVYPRRMLDNPDLVTLIDWMLSQAGSTEAGSL | not soluble |
| MGSDKIHHHHHHMATNTGHSNPKEALTFMNAPQLDIHQPRIAAFFDLDKTIIATSSALAYGREFMHSGLITPAEALQMSMAKATYMFSGYSSEQMDHTKNQLAHLITGWSEEQVREIANDTLQSVVAPAIYAEARDLIHMHQETGHDVVIISASARILVEAIAAELGVDQVVATELTVVDGKFTGEVPFYCKGAAKAQAILDLTDKRGYQLDRSFAYSDSITDLPMLEAVGNPRAVNPDRALKKVALDRDWEIHTFKNPVALFSKPTKRDLQISTGVAAGVAAVVGSVMWWKSLNGRSDRLRLSCTRDPGTQM | not soluble |
| MGSDKIHHHHHHMAVKRAYYGNDGDRDYFERVFQSANINFLIGSGASLPAINVLGTIENDLQQLINDEKEDEYFNMAAGFLSAVWLPHEYILDRGNDVAFPPPVISNVDYTRKNYDAFISSLEKILTRRRTGLLPRRINVFTTNYDLFIEEAATRNNNILFNDGFNKRMNVWGDEEFDAGSFNYSVSATGNLYNYKVELPTVNLIKLHGSFSWKHYKGRIIYNIGEKKPLNFATPAEMKKWVLAHALILPRKEKFKETLLQNVYYDLLRTYSNELDKEATLLVVFGFSFADEHLEMLTKKALRNATLKLLIFAFNEASVGGFMENFRDYSNVEIIYRPGGNVDFPVMNNIITCYLGGAR | not soluble |
| MGSDKIHHHHHHMCGHAKGGLTVLVSSRACPPQVQHRYLKTVLYLDCPQEVGDQSSPWWLLNIGYWLYGSACMLCKAAFGIELATEPQMEFSAHKGTTSISLVRDALQGAELRGLDVATVLSHAHIDPRLLDQRYARVPAGTFSRLWIALADLLDDEFFAADSHPLRRGSFKLMAQLALGCDTIGQALKRILAFLRTALDDIYGSVECEGEHAAIIIHDHGELRRVFCYGAWLVLVHGLLCWLCDRRIPIVKLSMRPPQPVDDSDYRMRFCEEIEWRADRTSAVFEKSFLAYKVCQTPVSLPAFLKGTPSNFLVKYRNDDSTSIMIRRRLKLLSPHTWPELDELARDLSMSSSTLQRRLYAEGFTYQRLKDNLRRDISISLLCRAGMTVDGVASEVGFIETSAFHRAFKKWTGITPGAYRRSLLSPRGD | not soluble |
| MGSDKIHHHHHHMCMYSATFTLEAITPVFMRGANQSKAEIRAASIKGLMRWWFRALSGSYFGNDVEGLRRVEEYVFGSTKRESRVVVEVVKEHVEERFCPLPMVWKKKKGVTTRVSQRAIAPGSKFTLLLTSDDEEVLKLACYSLIGLVYFGGIGFRCSRGAGSLKISSLKSDVQLIDLPKNKNQLGQMVNDLTVEIAKILKKTFLCDHENKNCTSYSSFWCFYLFLWGEKAELEEVYYRSNNLENERLTLLDLFEKEFKNKNNHLSNYGYRDFVFGLPRGTKKDRRASPIKVGITELSEKYHVRVSVFKTKIFKPGMNVKWDNIFVFLENIGAERIYPER | not soluble |
